± gives the uncertainty stated by the source.
B1: Nuclear receptor subfamily 1 group D member 2, residues 103 to 171; numbered along this chain, Q14995 (parent)
chain: CKVCGDVASGFHYGVHACEGCKGFFRRSIQQNIQYKKCLKNENCSIMRMNRNRCQQCRFKKCLSVGMSR

Variants of: B1
Experiment: abundance fitness (aPCA) (normalised: wild type 0, dead -1); higher = more abundant; growth selection in yeast, the domain comes from the species named
Details: Homo sapiens

Variant | abundance fitness
CKVCGDVASGFHYGVHACEGCKGFFRRSIQQNIQYKKCLKNENCSIMRMNRNRCQHCRFKKCLSVGMSR [Q56H] | -0.09 ± 0.18
CKVCGDVASGFHYGVHACEGCKGFFRRSIQQNIQYKKCLKNENCSIMRMNRNRCQLCRFKKCLSVGMSR [Q56L] | -0.022 ± 0.08
CKVCGDVASGFHYGVHACEGCKGFFRRSIQQNIQYKKCLKNENCSIMRMNRNRCQWCRFKKCLSVGMSR [Q56W] | 0.39 ± 0.084
CKVCGDVASGFHYGVHACEGCKGFFRRSIQQNIQYKKCLKNENCSIMRMNRNRCQVCRFKKCLSVGMSR [Q56V] | -0.134 ± 0.067
CKVCGDVASGFHYGVHACEGCKGFFRRSIQQNIQYKKCLKNENCSIMRMNRNRCQKCRFKKCLSVGMSR [Q56K] | -0.3 ± 0.064
CKVCGDVASGFHYGVHACEGCKGFFRRSIQQNIQYKKCLKNENCSIMRMNRNRCQTCRFKKCLSVGMSR [Q56T] | -0.013 ± 0.11
CKVCGDVASGFHYGVHACEGCKGFFRRSIQQNIQYKKCLKNENCSIMRMNRNRCQICRFKKCLSVGMSR [Q56I] | -0.134 ± 0.22
CKVCGDVASGFHYGVHACEGCKGFFRRSIQQNIQYKKCLKNENCSIMRMNRNRCQRCRFKKCLSVGMSR [Q56R] | -0.127 ± 0.076
CKVCGDVASGFHYGVHACEGCKGFFRRSIQQNIQYKKCLKNENCSIMRMNRNRCQMCRFKKCLSVGMSR [Q56M] | 0.002 ± 0.11
CKVCGDVASGFHYGVHACEGCKGFFRRSIQQNIQYKKCLKNENCSIMRMNRNRCQNCRFKKCLSVGMSR [Q56N] | 0.143 ± 0.18
CKVCGDVASGFHYGVHACEGCKGFFRRSIQQNIQYKKCLKNENCSIMRMNRNRCQPCRFKKCLSVGMSR [Q56P] | -0.205 ± 0.12
CKVCGDVASGFHYGVHACEGCKGFFRRSIQQNIQYKKCLKNENCSIMRMNRNRCQQCRYKKCLSVGMSR [F59Y] | -0.28 ± 0.24
CKVCGDVASGFHYGVHACEGCKGFFRRSIQQNIQYKKCLKNENCSIMRMNRNRCQQCRQKKCLSVGMSR [F59Q] | -0.536 ± 0.41
CKVCGDVASGFHYGVHACEGCKGFFRRSIQQNIQYKKCLKNENCSIMRMNRNRCQQCRPKKCLSVGMSR [F59P] | -0.783 ± 0.21
CKVCGDVASGFHYGVHACEGCKGFFRRSIQQNIQYKKCLKNENCSIMRMNRNRCQQCRRKKCLSVGMSR [F59R] | -0.477 ± 0.17
CKVCGDVASGFHYGVHACEGCKGFFRRSIQQNIQYKKCLKNENCSIMRMNRNRCQQCRLKKCLSVGMSR [F59L] | 0.107 ± 0.082
CKVCGDVASGFHYGVHACEGCKGFFRRSIQQNIQYKKCLKNENCSIMRMNRNRCQQCRAKKCLSVGMSR [F59A] | -0.601 ± 0.22
CKVCGDVASGFHYGVHACEGCKGFFRRSIQQNIQYKKCLKNENCSIMRMNRNRCQQCRWKKCLSVGMSR [F59W] | -0.255 ± 0.15
CKVCGDVASGFHYGVHACEGCKGFFRRSIQQNIQYKKCLKNENCSIMRMNRNRCQQCREKKCLSVGMSR [F59E] | -0.433 ± 0.27
CKVCGDVASGFHYGVHACEGCKGFFRRSIQQNIQYKKCLKNENCSIMRMNRNRCQQCRMKKCLSVGMSR [F59M] | -0.326 ± 0.19

Variant | abundance fitness
CKVCGDVASGFHYGVHACEGCKGFFRRSIQQNIQYKKCLKNENCSIMRMNRNRCQQCRGKKCLSVGMSR [F59G] | -0.395 ± 0.11
CKVCGDVASGFHYGVHACEGCKGFFRRSIQQNIQYKKCLKNENCSIMRMNRNRCQQCRDKKCLSVGMSR [F59D] | -0.8 ± 0.4
CKVCGDVASGFHYGVHACEGCKGFFRRSIQQNIQYKKCLKNENCSIMRMNRNRCQQCRIKKCLSVGMSR [F59I] | -0.355 ± 0.39
CKVCGDVASGFHYGVHACEGCKGFFRRSIQQNIQYKKCLKNENCSIMRMNRNRCQQCRTKKCLSVGMSR [F59T] | -0.512 ± 0.37
CKVCGDVASGFHYGVHACEGCKGFFRRSIQQNIQYKKCLKNENCSIMRMNRNRCQQCRSKKCLSVGMSR [F59S] | -0.809 ± 0.25
CKVCGDVASGFHYGVHACEGCKGFFRRSIQQNIQYKKCLKNENCSIMRMNRNRCQQCRFIKCLSVGMSR [K60I] | 0.406 ± 0.2
CKVCGDVASGFHYGVHACEGCKGFFRRSIQQNIQYKKCLKNENCSIMRMNRNRCQQCRFLKCLSVGMSR [K60L] | -0.097 ± 0.087
CKVCGDVASGFHYGVHACEGCKGFFRRSIQQNIQYKKCLKNENCSIMRMNRNRCQQCRFVKCLSVGMSR [K60V] | -0.249 ± 0.17
CKVCGDVASGFHYGVHACEGCKGFFRRSIQQNIQYKKCLKNENCSIMRMNRNRCQQCRFMKCLSVGMSR [K60M] | -0.141 ± 0.14
CKVCGDVASGFHYGVHACEGCKGFFRRSIQQNIQYKKCLKNENCSIMRMNRNRCQQCRFGKCLSVGMSR [K60G] | -0.428 ± 0.15
CKVCGDVASGFHYGVHACEGCKGFFRRSIQQNIQYKKCLKNENCSIMRMNRNRCQQCRFAKCLSVGMSR [K60A] | -0.009 ± 0.16
CKVCGDVASGFHYGVHACEGCKGFFRRSIQQNIQYKKCLKNENCSIMRMNRNRCQQCRFFKCLSVGMSR [K60F] | 0.044 ± 0.2
CKVCGDVASGFHYGVHACEGCKGFFRRSIQQNIQYKKCLKNENCSIMRMNRNRCQQCRFEKCLSVGMSR [K60E] | 0.033 ± 0.12
CKVCGDVASGFHYGVHACEGCKGFFRRSIQQNIQYKKCLKNENCSIMRMNRNRCQQCRFSKCLSVGMSR [K60S] | -0.284 ± 0.24
CKVCGDVASGFHYGVHACEGCKGFFRRSIQQNIQYKKCLKNENCSIMRMNRNRCQQCRFWKCLSVGMSR [K60W] | 0.021 ± 0.2
CKVCGDVASGFHYGVHACEGCKGFFRRSIQQNIQYKKCLKNENCSIMRMNRNRCQQCRFNKCLSVGMSR [K60N] | -0.056 ± 0.21
CKVCGDVASGFHYGVHACEGCKGFFRRSIQQNIQYKKCLKNENCSIMRMNRNRCQQCTFKKCLSVGMSR [R58T] | -0.097 ± 0.1
CKVCGDVASGFHYGVHACEGCKGFFRRSIQQNIQYKKCLKNENCSIMRMNRNRCQQCSFKKCLSVGMSR [R58S] | -0.877 ± 0.24
CKVCGDVASGFHYGVHACEGCKGFFRRSIQQNIQYKKCLKNENCSIMRMNRNRCQQCKFKKCLSVGMSR [R58K] | -0.497 ± 0.22
